{"source": "patent US6383761B1", "about": "“Methods and compositions for identifying modulators of G-protein-coupled receptors” (The Regents of the University of California, priority 1997, dated 2002)", "key": {"[1]": {"target": "T1, D2 dopamine receptor (Homo sapiens, UniProt P14416)", "T1 construct": "expressed in transfected cells; host or cells: COS-7", "T1 sequence (P14416 whole entry)": "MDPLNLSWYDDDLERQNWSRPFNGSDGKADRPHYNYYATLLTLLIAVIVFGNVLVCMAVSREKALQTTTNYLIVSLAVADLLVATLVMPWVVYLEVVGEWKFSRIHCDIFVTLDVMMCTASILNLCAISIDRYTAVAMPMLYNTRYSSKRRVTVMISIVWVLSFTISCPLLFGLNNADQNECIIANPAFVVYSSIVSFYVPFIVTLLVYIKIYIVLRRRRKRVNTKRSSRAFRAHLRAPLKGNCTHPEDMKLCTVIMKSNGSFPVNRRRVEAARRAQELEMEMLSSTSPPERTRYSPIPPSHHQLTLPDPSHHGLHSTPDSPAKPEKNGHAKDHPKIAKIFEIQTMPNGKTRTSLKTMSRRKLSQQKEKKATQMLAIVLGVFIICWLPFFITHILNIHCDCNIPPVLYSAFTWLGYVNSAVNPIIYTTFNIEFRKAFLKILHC", "type": "cell-based"}, "[2]": {"target": "T2, m2 muscarinic receptor (Homo sapiens, UniProt P08172)", "T2 sequence (P08172 1-466)": "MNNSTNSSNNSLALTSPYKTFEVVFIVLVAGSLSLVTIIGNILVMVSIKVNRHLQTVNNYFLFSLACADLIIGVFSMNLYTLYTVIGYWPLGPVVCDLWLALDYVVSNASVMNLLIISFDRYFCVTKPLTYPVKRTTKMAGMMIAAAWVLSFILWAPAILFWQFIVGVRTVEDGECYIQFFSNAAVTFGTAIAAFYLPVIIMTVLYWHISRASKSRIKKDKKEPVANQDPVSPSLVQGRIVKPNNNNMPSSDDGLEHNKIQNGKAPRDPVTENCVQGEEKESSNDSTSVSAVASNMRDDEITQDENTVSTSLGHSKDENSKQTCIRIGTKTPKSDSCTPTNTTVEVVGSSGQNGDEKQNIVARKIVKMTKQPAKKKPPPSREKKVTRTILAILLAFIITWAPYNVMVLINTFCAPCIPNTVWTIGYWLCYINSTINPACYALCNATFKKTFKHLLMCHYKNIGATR", "assay": "PI hydrolysis assay (IP1 accumulation) in COS-7 cells co-transfected with receptor and Gαq construct", "type": "cell-based", "conditions": "carbachol 100 μM, pertussis toxin pretreatment 500 ng/ml"}}, "data": [{"substance": "pertussis toxin", "values": [{"measurement": "block of agonist-induced PI response", "setting": "[1]", "value": "partly blocked"}, {"measurement": "block of agonist-induced increase in inositol phosphate production", "setting": "[1]", "value": "almost completely blocked"}, {"measurement": "block of agonist-induced PI response", "setting": "[2]; m2 receptor co-expressed with −6q", "value": "partly blocked"}, {"measurement": "block of agonist-induced increase in inositol phosphate production", "setting": "[2]; m2 receptor with vector DNA or WTq", "value": "almost completely blocked"}]}]}
